One series addresses OGG1 WT (untagged) (human, UniProt O15527 1-345). Kind of series: EMSA.
The target in another series is GST-OGG1 G245A (human, UniProt O15527 1-345, G245A). The experiment in a line: EMSA.
Chain of GST-OGG1 G245A (O15527 whole entry G245A): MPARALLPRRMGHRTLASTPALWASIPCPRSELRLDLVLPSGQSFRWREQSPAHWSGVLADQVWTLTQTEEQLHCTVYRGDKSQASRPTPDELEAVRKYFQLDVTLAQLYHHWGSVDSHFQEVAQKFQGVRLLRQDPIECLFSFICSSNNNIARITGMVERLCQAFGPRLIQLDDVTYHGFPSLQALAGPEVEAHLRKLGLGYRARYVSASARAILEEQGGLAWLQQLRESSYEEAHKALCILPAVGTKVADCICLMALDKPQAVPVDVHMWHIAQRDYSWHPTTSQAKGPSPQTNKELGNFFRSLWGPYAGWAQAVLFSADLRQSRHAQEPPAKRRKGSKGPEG

Chain of OGG1 WT (untagged) (O15527 whole entry): as the sequence (O15527 whole entry G245A) above, with A245G counted along it

B1: 32P 24-mer 8-oxoG:C (dsDNA)
DNA 1: CTGATCGATGACGCCTGACATGAT
DNA 2: ATCATGTCAGGCGTCATCGATCAG
modifications: 8-oxoG at position 13 of strand 1
B1: the binding result in the series with OGG1 WT (untagged) was “binds”.

B2: Cy5 34-mer 8-oxoG:C (dsDNA)
DNA 1: GGCTTCATCGTTGTCGCAGACCTGGTGGATACCG
DNA 2: CGGTATCCACCAGGTCTGCGACAACGATGAAGCC
modifications: 8-oxoG at position 16 of strand 1
Take B2: the binding result with GST-OGG1 G245A is recorded as “no binding”.

Source of the values: publication doi:10.1101/2022.11.04.515179.
